Reference: publication PMC7352350, “Molecular Interactions Stabilizing the Promatrix Metalloprotease-9·Serglycin Heteromer” (International Journal of Molecular Sciences, 2020)

B1: recombinant human His-tagged serglycin (natural protein, UniProt P10124 28-158, looked up)
chain: YPTRRARYQWVRCNPDSNSANCLEEKGPMFELLPGESNKIPRLRTDLFPKTRIQDLNRIFPLSEDYSGSGFGSGSGSGSGSGSGFLTEMEQDYQLVDESDAFHDNLRSLDRNLPSDSQDLGQHGLEEDFML
notes: serglycin core protein, human, the tag stands instead of the signal peptide; no GAG chains; numbers count on: the mature protein (1-131); also called Ht-SG; SG core protein; source: bought: ProSpec (produced in Escherichia coli)
B2: SG peptide 21 with D46 changed to A (peptide, UniProt P10124 68-87, looked up)
peptide: PRLRTALFPKTRIQDLNRIF
notes: serglycin core protein, mutated 20-mer of spot 21; numbers count on: the mature protein (1-131); source: synthetic peptide on a cellulose membrane
B3: SG peptide 23 with D46 changed to A (peptide, UniProt P10124 72-91, looked up)
peptide: TALFPKTRIQDLNRIFPLSE
notes: serglycin core protein, mutated 20-mer of spot 23; numbers count on: the mature protein (1-131); source: synthetic peptide on a cellulose membrane
B4: recombinant proMMP-9 lacking the HPX domain (domain or fragment, human, UniProt P14780 20-515, looked up)
chain: APRQRQSTLVLFPGDLRTNLTDRQLAEEYLYRYGYTRVAEMRGESKSLGPALLLLQKQLSLPETGELDSATLKAMRTPRCGVPDLGRFQTFEGDLKWHHHNITYWIQNYSEDLPRAVIDDAFARAFALWSAVTPLTFTRVYSRDADIVIQFGVAEHGDGYPFDGKDGLLAHAFPPGPGIQGDAHFDDDELWSLGKGVVVPTRFGNADGAACHFPFIFEGRSYSACTTDGRSDGLPWCSTTANYDTDDRFGFCPSERLYTQDGNADGKPCQFPFIFQGQSYSACTTDGRSDGYRWCATTANYDRDKLFGFCPTRADSTVMGGNSAGELCVFPFTFLGKEYSTCTSEGRGDGRLWCATTSNFDSDKKWGFCPDQGYSLFLVAAHEFGHALGLDHSSVPEALMYPMYRFTEGPPLHKDDVNGIRHLYGPRPEPEPRPPTTTTPQPTAPPTVCPTGPPTVHPSERPTAGPTGPPSAGPTGPPTAGPSTATTVPLSPVDDA
notes: MMP-9 proenzyme, human; stop codon behind the codon for A515; the mature proenzyme starts at 20; also called rpMMP-9ΔHPX; proMMP-9ΔHPX; source: Sf9, baculovirus, purified (gelatin-Sepharose)
B5: proMMP-9 purified from THP-1 cells (enzyme, human (endogenous in THP-1), UniProt P14780 20-707, looked up)
chain: APRQRQSTLVLFPGDLRTNLTDRQLAEEYLYRYGYTRVAEMRGESKSLGPALLLLQKQLSLPETGELDSATLKAMRTPRCGVPDLGRFQTFEGDLKWHHHNITYWIQNYSEDLPRAVIDDAFARAFALWSAVTPLTFTRVYSRDADIVIQFGVAEHGDGYPFDGKDGLLAHAFPPGPGIQGDAHFDDDELWSLGKGVVVPTRFGNADGAACHFPFIFEGRSYSACTTDGRSDGLPWCSTTANYDTDDRFGFCPSERLYTQDGNADGKPCQFPFIFQGQSYSACTTDGRSDGYRWCATTANYDRDKLFGFCPTRADSTVMGGNSAGELCVFPFTFLGKEYSTCTSEGRGDGRLWCATTSNFDSDKKWGFCPDQGYSLFLVAAHEFGHALGLDHSSVPEALMYPMYRFTEGPPLHKDDVNGIRHLYGPRPEPEPRPPTTTTPQPTAPPTVCPTGPPTVHPSERPTAGPTGPPSAGPTGPPTAGPSTATTVPLSPVDDACNVNIFDAIAEIGNQLYLFKDGKYWRFSEGRGSRPQGPFLIADKWPALPRKLDSVFEERLSKKLFFFSGRQVWVYTGASVLGPRRLDKLGLGADVAQVTGALRSGRGKMLLFSGRRLWRFDVKAQMVDPRSASEVDRMFPGVPLDTHDVFQYREKAYFCQDRFYWRVSSRSELNQVDQVGYVTYDILQCPED
notes: matrix metalloprotease-9 proenzyme, human; pre domain cleaved off, the mature proenzyme is 20-707; the preparation holds a small amount of TIMP-1; monomer and reduction-sensitive homomultimer; also called pMMP-9; promatrix metalloprotease-9; source: purified from conditioned medium of PMA-stimulated THP-1 cells (Q-Sepharose pass-through, gelatin-Sepharose)
B6: recombinant full-length proMMP-9 (enzyme, human, UniProt P14780 20-707, looked up)
chain: APRQRQSTLVLFPGDLRTNLTDRQLAEEYLYRYGYTRVAEMRGESKSLGPALLLLQKQLSLPETGELDSATLKAMRTPRCGVPDLGRFQTFEGDLKWHHHNITYWIQNYSEDLPRAVIDDAFARAFALWSAVTPLTFTRVYSRDADIVIQFGVAEHGDGYPFDGKDGLLAHAFPPGPGIQGDAHFDDDELWSLGKGVVVPTRFGNADGAACHFPFIFEGRSYSACTTDGRSDGLPWCSTTANYDTDDRFGFCPSERLYTQDGNADGKPCQFPFIFQGQSYSACTTDGRSDGYRWCATTANYDRDKLFGFCPTRADSTVMGGNSAGELCVFPFTFLGKEYSTCTSEGRGDGRLWCATTSNFDSDKKWGFCPDQGYSLFLVAAHEFGHALGLDHSSVPEALMYPMYRFTEGPPLHKDDVNGIRHLYGPRPEPEPRPPTTTTPQPTAPPTVCPTGPPTVHPSERPTAGPTGPPSAGPTGPPTAGPSTATTVPLSPVDDACNVNIFDAIAEIGNQLYLFKDGKYWRFSEGRGSRPQGPFLIADKWPALPRKLDSVFEERLSKKLFFFSGRQVWVYTGASVLGPRRLDKLGLGADVAQVTGALRSGRGKMLLFSGRRLWRFDVKAQMVDPRSASEVDRMFPGVPLDTHDVFQYREKAYFCQDRFYWRVSSRSELNQVDQVGYVTYDILQCPED
notes: matrix metalloprotease-9 proenzyme, human, full-length; pre domain cleaved off, the mature proenzyme is 20-707; also called rpMMP-9; source: Sf9, baculovirus, purified (gelatin-Sepharose)

Assays:
[1] = molecular target: B5; assay: far-Western, overlay or dot blot; slot blot: 200 ng Ht-SG on a polyvinyl difluoride membrane, blocked with milk powder, incubated with pMMP-9 for 2.5 h at room temperature; detected with antibody against proMMP-9; conditions: both partners purified
[2] = molecular target: B5; assay: peptide or protein array; mutated SG 20-mer peptides on cellulose, incubated with pMMP-9; antibody against MMP-9; conditions: both partners purified
[3] = molecular target: the molecule itself; assay: SDS-PAGE, Western blotting and gelatin zymography under non-reducing and reducing conditions; purified preparations; SDS-stable, reduction-sensitive homomultimer beside the monomer

Row | Binder | binding result [2] | binding result [3] | further results
1 | B1 | – | – | binding result [1]: binds
2 | B2 | binds | – | –
3 | B3 | binds | – | –
4 | B4 | – | binds | –
5 | B5 | – | binds | –
6 | B6 | – | binds | –
